Laboratory results published in patent publication US20180177763A1, “SMALL MOLECULES THAT MIMIC OR ANTAGONIZE ACTIONS OF GRANULOCYTE COLONY-STIMULATING-FACTOR (G-CSF)” (published 2018).

Legend:
[1] = target: T1, Granulocyte-colony stimulating factor receptor (G-CSF-R) (human); test: saturation binding of radioligand to SH-SY5Y neuronal cells (value in the text differs from Table 2)
T1 chain: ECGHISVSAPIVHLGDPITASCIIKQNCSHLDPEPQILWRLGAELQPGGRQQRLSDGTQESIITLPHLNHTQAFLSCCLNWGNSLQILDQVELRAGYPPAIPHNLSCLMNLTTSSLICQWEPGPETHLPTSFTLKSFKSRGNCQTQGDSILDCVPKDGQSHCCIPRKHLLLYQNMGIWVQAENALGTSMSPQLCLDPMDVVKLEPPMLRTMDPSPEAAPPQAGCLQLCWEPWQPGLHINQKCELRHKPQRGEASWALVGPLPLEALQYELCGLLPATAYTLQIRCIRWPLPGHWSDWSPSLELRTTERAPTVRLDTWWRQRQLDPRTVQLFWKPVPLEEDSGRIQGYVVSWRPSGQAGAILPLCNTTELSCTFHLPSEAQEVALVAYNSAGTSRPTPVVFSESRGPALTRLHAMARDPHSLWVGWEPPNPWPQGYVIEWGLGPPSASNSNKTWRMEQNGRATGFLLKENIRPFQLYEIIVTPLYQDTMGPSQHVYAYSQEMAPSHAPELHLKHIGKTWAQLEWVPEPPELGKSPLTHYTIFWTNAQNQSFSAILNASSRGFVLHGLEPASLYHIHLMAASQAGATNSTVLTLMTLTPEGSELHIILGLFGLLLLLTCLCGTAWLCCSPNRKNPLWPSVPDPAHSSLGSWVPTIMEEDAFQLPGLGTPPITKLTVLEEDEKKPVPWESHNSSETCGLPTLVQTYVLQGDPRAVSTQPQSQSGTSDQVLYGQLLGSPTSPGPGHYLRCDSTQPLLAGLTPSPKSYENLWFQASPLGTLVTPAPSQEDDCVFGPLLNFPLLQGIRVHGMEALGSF
Experimental: (§1) Binding of [¹²⁵I]-G-CSF was measured using previously described method (Kondo, S., et al. Eur. J. Haematol. 1991, 46, 223-30) with some modifications (Pennington, A., et al. Alzheimer's Disease and Parkinsonism 2013, 3, 121). [¹²⁵I]-G-CSF (specific activity 46.55 TBq/mmol) was purchased from Perkin Elmer (Waltham, Mass.). Cells were incubated in 180 μL of binding medium containing 0.2% BSA, 5 mM MgSO₄, and 50 mM Hepes, pH 7.2 at a concentration of 1.5×10⁷ cells/mL and the appropriate concentration of [¹²⁵I]-G-CSF. Incubations were carried out at room temperature with periodic shaking to ensure continuous mixing of cells and radioactive ligand. […] Nonspecific binding of [¹²⁵I]-G-CSF was measured by incubations in the presence of a 100-fold molar excess of unlabeled G-CSF. […] Bound and free ligand activities were counted after cutting tubes in two pieces and placing the tips and tops, respectively into separate scintillation vials. […] The specific binding was determined from the amount of bound [¹²⁵I]-G-CSF blocked by competition with excess unlabeled G-CSF. The parameters of saturation binding experiments including dissociation constant (Kd), maximum binding capacity (Bmax) and binding cooperativity (h) were calculated with GraphPad Prism 5 software (La Jolla, Calif.) by using nonlinear regression analysis. […]

[2] = target: T1, Granulocyte-colony stimulating factor …; test: saturation binding of radioligand to THP-1 monocytic cells, nonlinear regression
Experimental: as §1

[3] = target: T1, Granulocyte-colony stimulating factor …; test: saturation binding of radioligand to THP-1 monocytic cells (value in the text differs from Table 2)
Experimental: as §1

[4] = target: T1, Granulocyte-colony stimulating factor …; test: saturation binding of radioligand to SH-SY5Y neuronal cells, nonlinear regression
Experimental: as §1

Kd [1]: 0.607 nM
Kd [2]: 0.0538 nM
Kd [3]: 0.0575 nM
Kd [4]: 0.608 nM
B1: [125I]-G-CSF (ligand)
chain: TPLGPASSLPQSFLLKCLEQVRKIQGDGAALQEKLVSECATYKLCHPEELVLLGHSLGIPWAPLSSCPSQALQLAGCLSQLHSGLFLYQGLLQALEGISPELGPTLDTLQLDVADFATTIWQQMEELGMAPALQPTQGAMPAFASAFQRRAGGVLVASHLQSFLEVSYRVLRHLAQP
modifications: 125I radiolabel (specific activity 46.55 TBq/mmol); labelled residue not stated
